Among the data in publication PMC2944808 (2010) are Kd values, retold here.

The target of this assay is T1, CHRD_VWC2 (Mus musculus (Mouse), UniProt Q9Z0E2).
T1 chain: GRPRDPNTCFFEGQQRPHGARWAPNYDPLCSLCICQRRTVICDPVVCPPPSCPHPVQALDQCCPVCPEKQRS
Briefly: SPR, chordin VWC immobilised. Background: In SPR one partner is held on a chip, and binding of the other changes the refractive index at the surface.

B1: CV2 (protein)
chain: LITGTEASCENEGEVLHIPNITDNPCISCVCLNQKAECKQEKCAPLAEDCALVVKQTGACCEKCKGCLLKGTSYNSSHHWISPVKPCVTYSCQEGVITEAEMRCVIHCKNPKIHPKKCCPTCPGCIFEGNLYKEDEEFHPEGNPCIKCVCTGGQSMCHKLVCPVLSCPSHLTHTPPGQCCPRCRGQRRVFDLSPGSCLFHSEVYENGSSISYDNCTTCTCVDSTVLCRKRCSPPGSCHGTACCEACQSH
Turning to B1, the Kd (as a rule, a measure of binding affinity in units of concentration) came out at 145 nM.
